Measurements as given in the MegaScale stability set (Tsuboyama et al. 2023).

B1: r16_88_TrROS_Hall (parent)
chain: EVIELKIKFKTPEQREKLKEIAKKLNAEVVEEKDGEVIIRFKTPEQAERALKEAEKLGAEVEL

Variants of: B1
Test: folding stability dG (cDNA display proteolysis); higher = more stable
Conditions: PBS, room temperature

Variant | folding stability dG
E48Q | 4.37 kcal/mol
E48F | 4.72 kcal/mol
E48K | 4.67 kcal/mol
E48I | 4.17 kcal/mol
V30M | 4.49 kcal/mol
V30W | 4.39 kcal/mol
V30C | 4.38 kcal/mol
V30G | 4.26 kcal/mol
E16N | 4.5 kcal/mol
E16D | 4.24 kcal/mol
E16K | 4.47 kcal/mol
E16A | 4.32 kcal/mol
K56F | 4.23 kcal/mol
K56L | 4.5 kcal/mol
K56A | 4.49 kcal/mol
K56N | 4.44 kcal/mol
K56Y | 4.41 kcal/mol
K23H | 4.28 kcal/mol
K23D | 4.09 kcal/mol
K23T | 4.63 kcal/mol
L57G | 3.96 kcal/mol
L57W | 4.6 kcal/mol
L57V | 4.5 kcal/mol
L57C | 4.2 kcal/mol

Variant | folding stability dG
L57A | 4.15 kcal/mol
G35R | 4.42 kcal/mol
V2Q | 4.45 kcal/mol
V2E | 4.13 kcal/mol
V2F | 4.68 kcal/mol
L63I | 4.22 kcal/mol
L63C | 4.44 kcal/mol
L18H | 3.49 kcal/mol
L18R | 2.12 kcal/mol
L18G | 3.83 kcal/mol
L18F | 4.29 kcal/mol
K10T | 4.38 kcal/mol
R15K | 4.13 kcal/mol
R15P | 3.44 kcal/mol
R15Y | 4.58 kcal/mol
E31H | 4.63 kcal/mol
E31W | 4.68 kcal/mol
E31F | 4.61 kcal/mol
E31G | 4.41 kcal/mol
E31S | 4.6 kcal/mol
E31K | 4.34 kcal/mol
G58A | 4.3 kcal/mol
G58K | 4.25 kcal/mol
G58Q | 4.25 kcal/mol

Variant | folding stability dG
G58V | 4.21 kcal/mol
E4S | 4.54 kcal/mol
E4N | 4.35 kcal/mol
E4D | 4.4 kcal/mol
E32K | 4.45 kcal/mol
I3D | 4.52 kcal/mol
I3A | 4.54 kcal/mol
K24R | 4.38 kcal/mol
K24W | 4.77 kcal/mol
K24Y | 4.84 kcal/mol
K24L | 4.5 kcal/mol
P44A | 4.58 kcal/mol
P44R | 4.18 kcal/mol
V29E | 4.47 kcal/mol
V29P | 4.1 kcal/mol
K52E | 4.07 kcal/mol
K52T | 4.23 kcal/mol
K52Y | 4.67 kcal/mol
K52P | 3.91 kcal/mol
E60L | 4.21 kcal/mol
E60W | 4.01 kcal/mol
E60D | 4.24 kcal/mol
D34C | 4.42 kcal/mol
D34R | 4.23 kcal/mol

Variant | folding stability dG
D34M | 4.5 kcal/mol
D34L | 4.3 kcal/mol
D34T | 4.49 kcal/mol
R40L | 4.5 kcal/mol
R40N | 4.13 kcal/mol
R40T | 4.79 kcal/mol
R40A | 4.3 kcal/mol
L51H | 4.79 kcal/mol
L51P | 2.79 kcal/mol
L51G | 4.45 kcal/mol
L51W | 4.25 kcal/mol
L51N | 4.3 kcal/mol
A50V | 4.41 kcal/mol
A50N | 3.58 kcal/mol
A47N | 3.68 kcal/mol
A47I | 4.51 kcal/mol
T43G | 4.08 kcal/mol
T43I | 4.48 kcal/mol
T43E | 3.61 kcal/mol
K19I | 4.31 kcal/mol
K19L | 4.5 kcal/mol
I38L | 4.25 kcal/mol
I38H | 4.63 kcal/mol
F9H | 4.19 kcal/mol

Variant | folding stability dG
F9V | 4.27 kcal/mol
K8A | 4.09 kcal/mol
E45L | 4.29 kcal/mol
E45M | 4.46 kcal/mol
E45H | 4.08 kcal/mol
A59C | 4.17 kcal/mol
A59Y | 4.5 kcal/mol
A59N | 4.3 kcal/mol
Q14I | 4.1 kcal/mol
Q14F | 4.25 kcal/mol
Q14A | 4.33 kcal/mol
Q14K | 4.09 kcal/mol
Q14D | 4.16 kcal/mol
A22G | 4.64 kcal/mol
A22K | 3.78 kcal/mol
E28D | 4.26 kcal/mol
E28S | 4.1 kcal/mol
A54Y | 4.16 kcal/mol
A54Q | 3.6 kcal/mol
A54C | 4.41 kcal/mol
L5R | 4.4 kcal/mol
L5A | 4.37 kcal/mol
L5P | 2.55 kcal/mol
L5I | 4.26 kcal/mol

Variant | folding stability dG
L5D | 2 kcal/mol
I7S | 3.87 kcal/mol
I7W | 4.97 kcal/mol
I7E | 2.11 kcal/mol
E62F | 4.25 kcal/mol
E62T | 4.4 kcal/mol
E62W | 3.87 kcal/mol
E62N | 4.53 kcal/mol
F41T | 3.73 kcal/mol
F41I | 4.16 kcal/mol
Q46N | 4.26 kcal/mol
I21E | 4 kcal/mol
I21N | 4.13 kcal/mol
T11N | 4.26 kcal/mol
T11S | 4.44 kcal/mol
V37H | 4.38 kcal/mol
V37K | 3.31 kcal/mol
K6S | 4.26 kcal/mol
K6V | 4.37 kcal/mol
K6E | 3.75 kcal/mol
K6I | 4.47 kcal/mol
A27P | 4.01 kcal/mol
A27L | 4.45 kcal/mol
E55L | 4.45 kcal/mol

Variant | folding stability dG
I39E | 2.69 kcal/mol
I39P | 0.941 kcal/mol
N26Y | 4.31 kcal/mol
N26L | 4.16 kcal/mol
E1Q | 4.25 kcal/mol
E1T | 4.26 kcal/mol
R49Q | 4.41 kcal/mol
R49M | 4.46 kcal/mol
K17T | 4.2 kcal/mol
K17R | 4.51 kcal/mol
K17A | 4.54 kcal/mol
K17F | 4.57 kcal/mol
K42G | 4.03 kcal/mol
K42V | 4.19 kcal/mol
L25I | 4.46 kcal/mol
L25T | 4.29 kcal/mol
L25F | 4.63 kcal/mol
E36W | 4.7 kcal/mol
E36G | 4.39 kcal/mol
E53T | 4.03 kcal/mol
K33M | 4.39 kcal/mol
K33D | 4.26 kcal/mol
V61E | 4.3 kcal/mol
